The results in this text go back to patent publication US20160244497A1 (Amgen, published 2016).

Holding throughout (experiment): cell-based or functional assay
The target of experiment [1] is beta-klotho.
The target in experiment [2] is beta-klotho. The source holds these as a separate data set.
Experiment [3] deals with beta-klotho. The source holds these as a separate data set.
Experiment [4] concerns the target beta-klotho. The source holds these as a separate data set.

“And” between values parts separate entries of the source, which are not always exact repeats. Equal values may be shown once. Read-outs that look alike come from different tables or passages of the source.

B1: N-terminally PEGylated wild-type FGF21 (20 kDa PEG) (ligand)
chain: MHPIPDSSPLLQFGGQVRQRYLYTDDAQQTEAHLEIREDGTVGGAADQSPESLLQLKALKPGVIQILGVKTSRFLCQRPDGALYGSLHFDPEACSFRELLLEDGYNVYQSEAHGLPLHLPGNKSPHRDPAPRGPARFLPLPGLPPAPPEPPGILAPQPPDVGSSDPLSMVGPSQGRSPSYAS
modifications: one 20 kDa PEG on the N-terminus (alpha-amino group)
Turning to B1, in the experiment with beta-klotho [1], the “In Vitro Activity EC50, ELK-luciferase assay” value (“In Vitro Activity EC50” for short) came to 43.3 nM. The “EC50, ELK-luciferase assay” value was 36.7 nM and 43.3 nM and 21.5 nM and 40 nM in the experiment with beta-klotho [2]; 37 nM with beta-klotho [3].

B2: dually PEGylated FGF21 mutant E91C, R175C, P171G (ligand)
chain: MHPIPDSSPLLQFGGQVRQRYLYTDDAQQTEAHLEIREDGTVGGAADQSPESLLQLKALKPGVIQILGVKTSRFLCQRPDGALYGSLHFDPCACSFRELLLEDGYNVYQSEAHGLPLHLPGNKSPHRDPAPRGPARFLPLPGLPPAPPEPPGILAPQPPDVGSSDPLSMVGGSQGCSPSYAS
modifications: 20 kDa methoxy-PEG-maleimide on Cys 91 and on Cys 175
B2: the “EC50, ELK-luciferase assay” value with beta-klotho [4] is 155 nM.

B3: dually PEGylated FGF21 mutant E37C, E91C, P171G (ligand)
chain: MHPIPDSSPLLQFGGQVRQRYLYTDDAQQTEAHLEIRCDGTVGGAADQSPESLLQLKALKPGVIQILGVKTSRFLCQRPDGALYGSLHFDPCACSFRELLLEDGYNVYQSEAHGLPLHLPGNKSPHRDPAPRGPARFLPLPGLPPAPPEPPGILAPQPPDVGSSDPLSMVGGSQGRSPSYAS
modifications: 20 kDa methoxy-PEG-maleimide on Cys 37 and on Cys 91
For B3, in the experiment with beta-klotho [4], the “EC50, ELK-luciferase assay” value came out at 30 nM.

B4: dually PEGylated FGF21 mutant E37C, R77C, P171G (ligand)
chain: MHPIPDSSPLLQFGGQVRQRYLYTDDAQQTEAHLEIRCDGTVGGAADQSPESLLQLKALKPGVIQILGVKTSRFLCQCPDGALYGSLHFDPEACSFRELLLEDGYNVYQSEAHGLPLHLPGNKSPHRDPAPRGPARFLPLPGLPPAPPEPPGILAPQPPDVGSSDPLSMVGGSQGRSPSYAS
modifications: 20 kDa methoxy-PEG-maleimide on Cys 37 and on Cys 77
In the case of B4, the “EC50, ELK-luciferase assay” value in the experiment with beta-klotho [4] amounted to 27 nM.

B5: FGF21(K all R, R126K), 2 x 20k PEG (ligand)
chain: MHPIPDSSPLLQFGGQVRQRYLYTDDAQQTEAHLEIREDGTVGGAADQSPESLLQLRALRPGVIQILGVRTSRFLCQRPDGALYGSLHFDPEACSFRELLLEDGYNVYQSEAHGLPLHLPGNRSPHKDPAPRGPARFLPLPGLPPAPPEPPGILAPQPPDVGSSDPLSMVGPSQGRSPSYAS
modifications: two 20k PEG (amine-specific): N-terminus and Lys 126
Consider B5, for which the “In Vitro Activity EC50” value in the experiment with beta-klotho [1] came to 38 nM.

B6: FGF21(K56R/K69R/K122R), 2 x 20k PEG (ligand)
chain: MHPIPDSSPLLQFGGQVRQRYLYTDDAQQTEAHLEIREDGTVGGAADQSPESLLQLRALKPGVIQILGVRTSRFLCQRPDGALYGSLHFDPEACSFRELLLEDGYNVYQSEAHGLPLHLPGNRSPHRDPAPRGPARFLPLPGLPPAPPEPPGILAPQPPDVGSSDPLSMVGPSQGRSPSYAS
modifications: two 20k PEG (amine-specific): N-terminus and the one remaining lysine (Lys 59)
B6: the “In Vitro Activity EC50” value in the experiment with beta-klotho [1] is 215 nM.

B7: dually PEGylated FGF21 mutant E37C, H125C, P171G (ligand)
chain: MHPIPDSSPLLQFGGQVRQRYLYTDDAQQTEAHLEIRCDGTVGGAADQSPESLLQLKALKPGVIQILGVKTSRFLCQRPDGALYGSLHFDPEACSFRELLLEDGYNVYQSEAHGLPLHLPGNKSPCRDPAPRGPARFLPLPGLPPAPPEPPGILAPQPPDVGSSDPLSMVGGSQGRSPSYAS
modifications: 20 kDa methoxy-PEG-maleimide on Cys 37 and on Cys 125
For B7, in the experiment with beta-klotho [4], the “EC50, ELK-luciferase assay” value is 37 nM.

B8: FGF21(K59R/K69R/K122R), 2 x 20k PEG (ligand)
chain: MHPIPDSSPLLQFGGQVRQRYLYTDDAQQTEAHLEIREDGTVGGAADQSPESLLQLKALRPGVIQILGVRTSRFLCQRPDGALYGSLHFDPEACSFRELLLEDGYNVYQSEAHGLPLHLPGNRSPHRDPAPRGPARFLPLPGLPPAPPEPPGILAPQPPDVGSSDPLSMVGPSQGRSPSYAS
modifications: two 20k PEG (amine-specific): N-terminus and the one remaining lysine (Lys 56)
On to B8, for which the “In Vitro Activity EC50” value in the experiment with beta-klotho [1] turned out to be 499 nM.

B9: dually PEGylated FGF21 mutant R77C, G120C, P171G (ligand)
chain: MHPIPDSSPLLQFGGQVRQRYLYTDDAQQTEAHLEIREDGTVGGAADQSPESLLQLKALKPGVIQILGVKTSRFLCQCPDGALYGSLHFDPEACSFRELLLEDGYNVYQSEAHGLPLHLPCNKSPHRDPAPRGPARFLPLPGLPPAPPEPPGILAPQPPDVGSSDPLSMVGGSQGRSPSYAS
modifications: 20 kDa methoxy-PEG-maleimide on Cys 77 and on Cys 120
For the molecule B9, in the experiment with beta-klotho [4], the “EC50, ELK-luciferase assay” value came to 35 nM.

B10: FGF21(all K to all R, R175K), 2 x 20k PEG (ligand)
chain: MHPIPDSSPLLQFGGQVRQRYLYTDDAQQTEAHLEIREDGTVGGAADQSPESLLQLRALRPGVIQILGVRTSRFLCQRPDGALYGSLHFDPEACSFRELLLEDGYNVYQSEAHGLPLHLPGNRSPHRDPAPRGPARFLPLPGLPPAPPEPPGILAPQPPDVGSSDPLSMVGPSQGKSPSYAS
modifications: two 20k PEG (amine-specific): N-terminus and Lys 175
As for B10, the “In Vitro Activity EC50” value with beta-klotho [1] is > 1000 nM.

B11: FGF21(K56R/K59R/K122R), 2 x 20k PEG (ligand)
chain: MHPIPDSSPLLQFGGQVRQRYLYTDDAQQTEAHLEIREDGTVGGAADQSPESLLQLRALRPGVIQILGVKTSRFLCQRPDGALYGSLHFDPEACSFRELLLEDGYNVYQSEAHGLPLHLPGNRSPHRDPAPRGPARFLPLPGLPPAPPEPPGILAPQPPDVGSSDPLSMVGPSQGRSPSYAS
modifications: two 20k PEG (amine-specific): N-terminus and the one remaining lysine (Lys 69)
Consider B11, for which the “In Vitro Activity EC50” value with beta-klotho [1] was 531 nM.

B12: FGF21(K56/59/69R), 2 x 20k PEG (ligand)
chain: MHPIPDSSPLLQFGGQVRQRYLYTDDAQQTEAHLEIREDGTVGGAADQSPESLLQLRALRPGVIQILGVRTSRFLCQRPDGALYGSLHFDPEACSFRELLLEDGYNVYQSEAHGLPLHLPGNKSPHRDPAPRGPARFLPLPGLPPAPPEPPGILAPQPPDVGSSDPLSMVGPSQGRSPSYAS
modifications: two 20k PEG (amine-specific): N-terminus and the one remaining lysine (Lys 122)
With B12, the “In Vitro Activity EC50” value with beta-klotho [1] was determined as 500 nM.

B13: FGF21(all K to all R, R72K), 2 x 20k PEG (ligand)
chain: MHPIPDSSPLLQFGGQVRQRYLYTDDAQQTEAHLEIREDGTVGGAADQSPESLLQLRALRPGVIQILGVRTSKFLCQRPDGALYGSLHFDPEACSFRELLLEDGYNVYQSEAHGLPLHLPGNRSPHRDPAPRGPARFLPLPGLPPAPPEPPGILAPQPPDVGSSDPLSMVGPSQGRSPSYAS
modifications: two 20k PEG (amine-specific): N-terminus and Lys 72
Take B13: the “In Vitro Activity EC50” value in the experiment with beta-klotho [1] was > 1000 nM.

B14: dually PEGylated FGF21 mutant E37C, R175C, P171G (ligand)
chain: MHPIPDSSPLLQFGGQVRQRYLYTDDAQQTEAHLEIRCDGTVGGAADQSPESLLQLKALKPGVIQILGVKTSRFLCQRPDGALYGSLHFDPEACSFRELLLEDGYNVYQSEAHGLPLHLPGNKSPHRDPAPRGPARFLPLPGLPPAPPEPPGILAPQPPDVGSSDPLSMVGGSQGCSPSYAS
modifications: 20 kDa methoxy-PEG-maleimide on Cys 37 and on Cys 175
B14: the “EC50, ELK-luciferase assay” value with beta-klotho [4] was 162 nM.

B15: dually PEGylated FGF21 mutant E91C, G120C, P171G (ligand)
chain: MHPIPDSSPLLQFGGQVRQRYLYTDDAQQTEAHLEIREDGTVGGAADQSPESLLQLKALKPGVIQILGVKTSRFLCQRPDGALYGSLHFDPCACSFRELLLEDGYNVYQSEAHGLPLHLPCNKSPHRDPAPRGPARFLPLPGLPPAPPEPPGILAPQPPDVGSSDPLSMVGGSQGRSPSYAS
modifications: 20 kDa methoxy-PEG-maleimide on Cys 91 and on Cys 120
As for B15, the “EC50, ELK-luciferase assay” value with beta-klotho [4] is 34 nM.

B16: dually PEGylated FGF21 mutant E37C, G120C, P171G (ligand)
chain: MHPIPDSSPLLQFGGQVRQRYLYTDDAQQTEAHLEIRCDGTVGGAADQSPESLLQLKALKPGVIQILGVKTSRFLCQRPDGALYGSLHFDPEACSFRELLLEDGYNVYQSEAHGLPLHLPCNKSPHRDPAPRGPARFLPLPGLPPAPPEPPGILAPQPPDVGSSDPLSMVGGSQGRSPSYAS
modifications: 20 kDa methoxy-PEG-maleimide on Cys 37 and on Cys 120
Consider B16, for which the “EC50, ELK-luciferase assay” value with beta-klotho [4] was 35 nM.

B17: dually PEGylated FGF21 mutant E91C, H125C, P171G (ligand)
chain: MHPIPDSSPLLQFGGQVRQRYLYTDDAQQTEAHLEIREDGTVGGAADQSPESLLQLKALKPGVIQILGVKTSRFLCQRPDGALYGSLHFDPCACSFRELLLEDGYNVYQSEAHGLPLHLPGNKSPCRDPAPRGPARFLPLPGLPPAPPEPPGILAPQPPDVGSSDPLSMVGGSQGRSPSYAS
modifications: 20 kDa methoxy-PEG-maleimide on Cys 91 and on Cys 125
As for B17, the “EC50, ELK-luciferase assay” value in the experiment with beta-klotho [4] was 37 nM.
